Biological target: the molecule itself
Assay: cryo-EM structure

B1: Mouse EHD4 (residues 22-541, EHD4^ΔN) (domain or fragment, UniProt Q9EQP2 22-541, looked up)
chain: QTVTGGLRSLYQRKVLPLEEAYRFHEFHSPALEDADFENKPMILLVGQYSTGKTTFIRYLLEQDFPGMRIGPEPTTDSFIAVMYGETEGSTPGNALVVDPKKPFRKLSRFGNAFLNRFMCSQLPNQVLKSISIIDSPGILSGEKQRISRGYDFCQVLQWFAERVDRIILLFDAHKLDISDEFSEAIKAFRGQDDKIRVVLNKADQVDTQQLMRVYGALMWSLGKVINTPEVLRVYIGSFWAQPLQNTDNRRLFEAEAQDLFRDIQSLPQKAAVRKLNDLIKRARLAKVHAYIISYLKKEMPNMFGKENKKRELIYRLPEIYVQLQREYQISAGDFPEVKAMQEQLENYDFTKFHSLKPKLIEAVDNMLTNKISSLMGLISQEEMNMPTQMVQGGAFDGTTEGPFNQGYGEGAKEGADEEEWVVAKDKPVYDELFYTLSPINGKISGVNAKKEMVTSKLPNSVLGKIWKLADCDCDGMLDEEEFALAKHLIKIKLDGYELPNSLPPHLVPPSHRKSLPKAD
binding result: binds
